Values of other authors, collected in article PMC9038201.
pKd: −log10 of the molar value.

Target: ubiquitin (Homo sapiens) (UniProt P0CG47)

Substance: PLpro (from UniProt P0DTD1)
- pKd: 3.92
